Data published in paper PMC7173960 (eLife, 2020).
Read-outs that look alike come from different tables or passages of the source.

B1: RV106 (VHH)
VHH: QVQLQESGGGLVQAGGSLRLSCAASGLTFSSYAMGWFRQAPGKEREFVASSSRIEGIIDYADSVKGRFTISRDNAKNTVYLQMDSLKPEDTAVYFCAATRAIIAGRSRSAYDYWGQGTQVTVSS
B2: RV108 (VHH)
VHH: QVQLQESGGGLVQAGGSLRLSCVASGRTPSRFFMAWFRQSPGKEREFVARINWGGGNTYYADSVKSRFTISMNNARNTAYLQMNNLKPEDTAVYICAANSDLETNVASLYDYWGQGTQVTVSS
B3: RV139 (VHH)
VHH: QVQLQESGGGLVQAGGSLRLSCAASGPTFSRVTTMGWFRQAPGKDREFVGAISWSDGITYYADSVKGRFTISRDNAKNTMFLQMNSLKPEDTAVYYCGAKIHGGSWFPNYEQYEGMYDFWGQGTQVTVSS
B4: RV152 (VHH)
VHH: QVQLQESGGGLVQAGGSLRLSCAASGRTASSYATGWFRQAPGKEREFVAAIMWSASITHYTDSVKGRFTISRDNAKNTVYLQMNSLKPEDTAVYYCAASKGIIATQAISAYDYWGQGTQVTVSS
B5: RV110 (VHH)
VHH: QVQLQESGGGLVQAGGSLRLSCVASGRSFSTSAMGWFRQTPGKEREFVAAISTSGRPTYYADSVKGRGTISRDNAKATVYLEMNSLKPEDTAAYYCAAGMRPRLTGDYYSTDEYDYWGQGTQVTVSS
B6: RV124 (VHH)
VHH: QVQLQQSGGGLVQPGGSLRLSCAASGIISSIYAMGWYRQAPGKQRELVATAGRVTNYADSVKDRFTISRDNAKNTVYLQMNSLKPEDTAVYYCNARNRLTDDNYWGQGTQVTVSS
B7: RV126 (VHH)
VHH: QVQLQESGGGLVQPGGSLRLSCAASGSIFRFNAMGWYRQAPGNQRDQQRELVAVATNHGTTNYADSVKGRFTISRDNAKNTVALQMNSLKPEDTAVYYCNIRNRLTGDDYWGQGTQVTVSS
B8: RV141 (VHH)
VHH: QVQLQQSGGGLVQAGGSLRLSCAASGRTFSRYRMGWFRQAPGKEREFVAAINWSGGRTYYVDSMEGRFTISRDNAKNTVYLQMNSLKPEDTAVYRCAAQDRLTGNVYYHEEYDYWGQGTQVTVSS
B9: RV145 (VHH)
VHH: QVQLQESGGGLVQAGASLRLSCAASGLTFSSYRMGWFRQAPGKEREFVSAINWSGGNTYYADSLKGRFTISRDNAKNTVYLQMNSLKPEDTAVYYCASQWRLSGVDPLRAHEYEYWGQGTQVTVSS
B10: RV134 (VHH)
VHH: QVQLQESGGGLVQAGGSLRLSCAASGLTFAFYTVGWFRQAPGKEREFVGGIIWAGGRTSYADSVKGRFTISRDNAENTVYLQMNSLRPEDTAVYYCAAKNRLTSTNEYDFWGQGTQVTVSS
B11: RV115 (VHH)
VHH: QVQLQESGGGLVQPGGSLRLSCAVSGSMFSIDAMGWYRQDPGEERELVAAITSGGRTSYADSVKGRFTISRDNANNAVYLQMNNLKPEDTAVYYCNADAVAPFRMTYWGKGTLVTVSS
notes: also called VHH RV115; source: S. cerevisiae, purified from the culture supernatant (IMAC, Ni-NTA)
B12: SB10 (VHH)
VHH: QVQLQESGGGLVQAGDSLRVSCAASGRTLRNYHVGWFRQAPGKDREFVAAVSWDDSTYYTESVKGRFTISRDNANNTVYLQMNSLKPEDTAVYYCAADRGSVPFYSDFLRGRYEYGGQGTQVTVSS
notes: source: S. cerevisiae, purified from the culture supernatant (IMAC, Ni-NTA)
B13: SB12 (VHH)
VHH: QVQLQQSGGGLVQAGGSLRLSCAASGRKISSLTIYGMGWFRQAPGKEREFVAAISQAGGTTSYADSIKDRFTISRDNDKNTAYLQMNNLKPEDTAVYYCAADFLPRIISRRYSDYEYWGQGAQVTVSS
notes: as for B12
B14: SB13 (VHH)
VHH: QVQLQESGGGLVQAGDSLRLSCAVSGRTVSSNVMAWFRQAPGKEREAVAFIDSGSGGWPYYSDSVKGRFTISRDNAKNMVYLQMDSLIPEDTAVYYCAADSAVYSRSSRWWLRASSYSYWGQGTQVTVSS
notes: as for B12
B15: SB11 (VHH)
VHH: QVQLQESGGGMVQAGGSLRLSCAASGRTFRGYGMGWWRQAPGQERDIVAWIRWSDSTGFYIDSVKGRFTISSDNAKNTVYLQMNSLKVEDTAVYYCAAARGTTGWGAVEDRYWGQGAQVTVSS
notes: as for B12
B16: SB9 (VHH)
VHH: QVQLQESGGGLVQPGGSLRLSCAASGFTFGSYDMSWVRQAPGKGPEWVSGINSGAISTYYADSVKGRFTISRDNAKNTLYLQMNSLKPEDTAVYYCAKADLDKMMEMVAGRPFLPHDPNFGSWGQGTQVTVSS
notes: as for B12
B17: SB14 (VHH)
VHH: QVQLQQSGGGLVQAGGSLRLSCTASGRTFSTYVMGWFRQAPGKEREFVGAISWSGGSTVYADSVKGRFTISRDDAKNTVYLQMNSLKPEDTAVYYCAADDSSWYLVLDAYEYDYWGQGTQVTVSS
notes: as for B12
B18: RV104 (VHH)
VHH: QVQLQESGGGLVQAGGSLRLSCTASGRTNSNYFMTWFRQAPGKEREFVAIINHITGSTEYVDSVKGRFIISRDNAKNTVYLQMDSLKPEDTAVYYCASGRIYSAIPGLYDYWGQGTRVTVSS
notes: also called VHH RV104; source: S. cerevisiae, purified from the culture supernatant (IMAC, Ni-NTA)
B19: RV136 (VHH)
VHH: QVQLQESGGGLVQAGGSLRLSCAASGRTFSRNTMGWFRQAPGKEREFVAAITGGGSTYYADSLKGRFTISRDNAKNTLYLQMNSLKPEDTAIYYCAQYKSSIYFIDYYLRIGDNYDYWGQGTQVTVSS
notes: as for B12
B20: RV148 (VHH)
VHH: QVQLQQSGGGLVQAGDSLRVSCAASGRTFSSYVLAWFRQAPGKEREFVAVVGWTGARKEYTDSVKGRFTISRDNAKNTVYLQMNSLKPEDTAVYYCAAGRYYIADGSLYDFWGQGTQVTVSS
notes: as for B12
B21: RV107 (VHH)
VHH: QVQLQESGGGLVQAGGSLRLSCTASGRTFDGVNMAWFRQIPGKEREFVATTLWRGNVPYYTDSVEGRFTISSDNAKNTGYLQMNSLKPEDTAVYYCAARTGSTFLSSALAQSEAVYSIWGQGTQVTVSS
notes: also called VHH RV107; source: S. cerevisiae, purified from the culture supernatant (IMAC, Ni-NTA)
B22: RV150 (VHH)
VHH: QVQLQESGGGLVQAGGSLRLSCAASGRTLSSYAMGWFRQAPGKEREFVGAISWSGPMLYYGDSAKGRFTISRDNAKNTVYLQMNTLKPEDTAVYYCAAANRLTAEGWQQGYNYDYWGQGTQVTVSS
notes: also called VHH RV150; source: S. cerevisiae, purified from the culture supernatant (IMAC, Ni-NTA)
B23: SBV Gc head domain (SBV-Gc_(head)) (domain or fragment)
chain: INCKNIQSTQLTIEHLSKCMAFYQNKTSSPVVINEIISDASVDEQELIKSLNLNCNVIDRFISESSVIETQVYYEYIKSQLCPLQVHDIFTINSASNIQWKALARSFTLGVCNTNPHKHICRCLESMQMCTSTKTDHAREMSIYYDGHPDRFEHDMKIILNIMRYIVPGLGRVLLDQIKQTKDYQALRHIQGKLSPKSQSNLQLKGFLEFVDFILGANVTIEKTPQTLTTLSLI
notes: not shown: Twin Strep-tag, C-terminal, kept

Key:
[1] = biological target: T1, RVFV Gn ectodomain (RVFV-Gn_(ecto)) (Rift Valley fever virus, Clone 13, UniProt A2T080)
[2] = biological target: T1, RVFV Gn ectodomain (RVFV-Gn_(ecto)); assay: ELISA; conditions: both partners purified
RVFV-Gn head domain = RVFV-Gn head domain (Rift Valley fever virus, Clone 13, UniProt A2T080); assay: ELISA; conditions: both partners purified
[3] = biological target: B23; assay: ELISA; competition ELISA: antigen on Strep-Tactin microplates; competing VHH at 11.11 µg/ml, 1 hr RT, then HRP-conjugated analyte VHH, 1 hr RT; competition as percentage of blocking, above 50% counted as efficient; conditions: both partners purified
RVFV-Gn subdomain B = RVFV-Gn subdomain B (Rift valley fever virus (RVFV).); assay: ELISA; conditions: both partners purified
SB10-ELP2ABD-SB10 = biological target: T2, SB10-ELP2ABD-SB10 (Lama glama); assay: ELISA; […] (25 mM Tris-HCl, 2 mM EDTA, 140 mM NaCl, pH 7.6, […]; conditions: both partners purified
T2 construct: also called bivalent ELP-based VHH complex; copies: + +

B1
binding result [1]: binds

B2
binding result [1]: binds

B3
binding result [1]: binds

B4
binding result [1]: binds

B5
binding result [1]: binds

B6
binding result [1]: binds

B7
binding result [1]: binds

B8
binding result [1]: binds

B9
binding result [1]: binds

B10
binding result [1]: binds

B11
binding result [2]: binds
binding result (RVFV-Gn head domain): binds

B12
binding result [3]: binds

B13
binding result [3]: binds

B14
binding result [3]: binds

B15
binding result [3]: binds

B16
binding result [3]: binds

B17
binding result [3]: binds

B18
binding result [2]: binds
binding result (RVFV-Gn head domain): binds
binding result (RVFV-Gn subdomain B): binds

B19
binding result [2]: binds
binding result (RVFV-Gn head domain): binds
binding result (RVFV-Gn subdomain B): binds

B20
binding result [2]: binds
binding result (RVFV-Gn head domain): binds
binding result (RVFV-Gn subdomain B): binds

B21
binding result [2]: binds
binding result (RVFV-Gn head domain): binds

B22
binding result (RVFV-Gn head domain): binds

B23
binding result (SB10-ELP2ABD-SB10): binds
